The results in this text go back to patent publication US20250304644A1, “PEPTIDES TRIPLE AGONISTS OF GIP, GLP-1 AND GLP-2” (BAINAN BIOTECH APS, priority 2021, published 2025).

What all share (assay): cell-based or functional assay
Assay [1] deals with T1, human GLP-2R (glucagon-like peptide-2 receptor) (human, UniProt O95838 1-553).
T1 sequence (looked up): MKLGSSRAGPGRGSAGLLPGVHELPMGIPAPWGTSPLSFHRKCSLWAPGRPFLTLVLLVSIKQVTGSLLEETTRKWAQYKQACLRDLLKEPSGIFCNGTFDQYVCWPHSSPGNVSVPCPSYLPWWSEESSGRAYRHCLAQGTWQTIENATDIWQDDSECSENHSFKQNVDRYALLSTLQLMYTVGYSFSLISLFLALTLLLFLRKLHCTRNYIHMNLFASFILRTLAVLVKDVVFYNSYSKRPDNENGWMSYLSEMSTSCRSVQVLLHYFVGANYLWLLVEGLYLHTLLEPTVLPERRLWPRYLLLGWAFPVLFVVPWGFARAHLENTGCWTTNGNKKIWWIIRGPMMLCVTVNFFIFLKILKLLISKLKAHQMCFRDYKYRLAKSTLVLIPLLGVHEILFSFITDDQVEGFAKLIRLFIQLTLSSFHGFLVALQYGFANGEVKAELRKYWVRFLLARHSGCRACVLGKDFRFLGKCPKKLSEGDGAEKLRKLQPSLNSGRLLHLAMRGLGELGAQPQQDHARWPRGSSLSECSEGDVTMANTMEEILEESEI

Assay [2] deals with T2, human GIPR (glucose-dependent insulinotropic polypeptide receptor) (human, UniProt P48546 22-466).
T2 sequence (looked up): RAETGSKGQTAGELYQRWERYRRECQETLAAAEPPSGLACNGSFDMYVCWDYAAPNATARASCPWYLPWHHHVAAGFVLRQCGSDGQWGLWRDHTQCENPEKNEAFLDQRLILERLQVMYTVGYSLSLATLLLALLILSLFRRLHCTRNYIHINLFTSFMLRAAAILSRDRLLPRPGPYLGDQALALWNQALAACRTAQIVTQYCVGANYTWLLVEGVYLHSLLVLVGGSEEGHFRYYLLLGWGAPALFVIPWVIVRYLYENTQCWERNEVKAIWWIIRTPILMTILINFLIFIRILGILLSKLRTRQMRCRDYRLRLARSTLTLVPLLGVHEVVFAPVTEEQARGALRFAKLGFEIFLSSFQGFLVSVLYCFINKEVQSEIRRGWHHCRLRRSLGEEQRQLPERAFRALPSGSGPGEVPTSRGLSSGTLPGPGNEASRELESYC

Assay [3] concerns the target human GLP-1R (glucagon-like peptide-1 receptor) (human, UniProt P43220 24-463).

Where no end group is shown, it is not given here. [ ]: non-standard residue; d: D form. The star is where a group is joined. Decanoyl = CCCCCCCCCC(=O)*; Aib = CC(C)(N)C(=O)O

B1: Compound 5 (peptide)
peptide: H[Aib]DGTFISDYSTILDALAARDFINWLIQTKITK(Decanoyl)-NH2
modifications: N-terminus assumed
SMILES: CCCCCCCCCC(=O)NCCCC[C@H](NC(=O)[C@@H](NC(=O)[C@@H](NC(=O)[C@H](CCCCN)NC(=O)[C@@H](NC(=O)[C@H](CCC(N)=O)NC(=O)[C@@H](NC(=O)[C@H](CC(C)C)NC(=O)[C@H](Cc1c[nH]c2ccccc12)NC(=O)[C@H](CC(N)=O)NC(=O)[C@@H](NC(=O)[C@H](Cc1ccccc1)NC(=O)[C@H](CC(=O)O)NC(=O)[C@H](CCCNC(=N)N)NC(=O)[C@H](C)NC(=O)[C@H](C)NC(=O)[C@H](CC(C)C)NC(=O)[C@H](C)NC(=O)[C@H](CC(=O)O)NC(=O)[C@H](CC(C)C)NC(=O)[C@@H](NC(=O)[C@@H](NC(=O)[C@H](CO)NC(=O)[C@H](Cc1ccc(O)cc1)NC(=O)[C@H](CC(=O)O)NC(=O)[C@H](CO)NC(=O)[C@@H](NC(=O)[C@H](Cc1ccccc1)NC(=O)[C@@H](NC(=O)CNC(=O)[C@H](CC(=O)O)NC(=O)C(C)(C)NC(=O)[C@@H](N)Cc1c[nH]cn1)[C@@H](C)O)[C@@H](C)CC)[C@@H](C)O)[C@@H](C)CC)[C@@H](C)CC)[C@@H](C)CC)[C@@H](C)O)[C@@H](C)CC)[C@@H](C)O)C(N)=O
Take B1: in assay [1], the “Efficacy GLP-2R” value is 110 and the “logEC50 GLP-2R” value is 8.7. Moreover, in assay [2], the “EC50 (nM) GIPR” value is 0.158 nM, the “Efficacy GIPR” value was determined as 111 and the “pEC50 GIPR” value was 9.8. Further, in assay [3], the “EC50 (nM) GLP-1R” value stood at 1.78 nM, the “Efficacy GLP-1R” value was determined as 105 and the “logEC50 GLP-1R” value was 8.8.

B2: Compound 13 (peptide)
peptide: H[Aib]DGTFISDYSTELDNLAARDFINWLIQTKITK(Decanoyl)-NH2
modifications: N-terminus assumed
SMILES: CCCCCCCCCC(=O)NCCCC[C@H](NC(=O)[C@@H](NC(=O)[C@@H](NC(=O)[C@H](CCCCN)NC(=O)[C@@H](NC(=O)[C@H](CCC(N)=O)NC(=O)[C@@H](NC(=O)[C@H](CC(C)C)NC(=O)[C@H](Cc1c[nH]c2ccccc12)NC(=O)[C@H](CC(N)=O)NC(=O)[C@@H](NC(=O)[C@H](Cc1ccccc1)NC(=O)[C@H](CC(=O)O)NC(=O)[C@H](CCCNC(=N)N)NC(=O)[C@H](C)NC(=O)[C@H](C)NC(=O)[C@H](CC(C)C)NC(=O)[C@H](CC(N)=O)NC(=O)[C@H](CC(=O)O)NC(=O)[C@H](CC(C)C)NC(=O)[C@H](CCC(=O)O)NC(=O)[C@@H](NC(=O)[C@H](CO)NC(=O)[C@H](Cc1ccc(O)cc1)NC(=O)[C@H](CC(=O)O)NC(=O)[C@H](CO)NC(=O)[C@@H](NC(=O)[C@H](Cc1ccccc1)NC(=O)[C@@H](NC(=O)CNC(=O)[C@H](CC(=O)O)NC(=O)C(C)(C)NC(=O)[C@@H](N)Cc1c[nH]cn1)[C@@H](C)O)[C@@H](C)CC)[C@@H](C)O)[C@@H](C)CC)[C@@H](C)CC)[C@@H](C)O)[C@@H](C)CC)[C@@H](C)O)C(N)=O
B2: in assay [1], the “EC50 (nM) GLP-2R” value was 25.1 nM, the “Efficacy GLP-2R” value worked out at 86 and the “logEC50 GLP-2R” value came out at 7.6. For the same molecule, in assay [2], the “EC50 (nM) GIPR” value was 7.94 nM, the “Efficacy GIPR” value amounted to 117 and the “pEC50 GIPR” value was 8.1. Besides, in assay [3], the “EC50 (nM) GLP-1R” value came out at 25.1 nM, the “Efficacy GLP-1R” value is 85 and the “logEC50 GLP-1R” value stood at 7.6.

B3: Compound 3 (peptide)
peptide: H[Aib]DGTFISDYATILDNLAARDFINWLIQTKITK(Decanoyl)-OH
modifications: N-terminus assumed
SMILES: CCCCCCCCCC(=O)NCCCC[C@H](NC(=O)[C@@H](NC(=O)[C@@H](NC(=O)[C@H](CCCCN)NC(=O)[C@@H](NC(=O)[C@H](CCC(N)=O)NC(=O)[C@@H](NC(=O)[C@H](CC(C)C)NC(=O)[C@H](Cc1c[nH]c2ccccc12)NC(=O)[C@H](CC(N)=O)NC(=O)[C@@H](NC(=O)[C@H](Cc1ccccc1)NC(=O)[C@H](CC(=O)O)NC(=O)[C@H](CCCNC(=N)N)NC(=O)[C@H](C)NC(=O)[C@H](C)NC(=O)[C@H](CC(C)C)NC(=O)[C@H](CC(N)=O)NC(=O)[C@H](CC(=O)O)NC(=O)[C@H](CC(C)C)NC(=O)[C@@H](NC(=O)[C@@H](NC(=O)[C@H](C)NC(=O)[C@H](Cc1ccc(O)cc1)NC(=O)[C@H](CC(=O)O)NC(=O)[C@H](CO)NC(=O)[C@@H](NC(=O)[C@H](Cc1ccccc1)NC(=O)[C@@H](NC(=O)CNC(=O)[C@H](CC(=O)O)NC(=O)C(C)(C)NC(=O)[C@@H](N)Cc1c[nH]cn1)[C@@H](C)O)[C@@H](C)CC)[C@@H](C)O)[C@@H](C)CC)[C@@H](C)CC)[C@@H](C)CC)[C@@H](C)O)[C@@H](C)CC)[C@@H](C)O)C(=O)O
Regarding B3, in assay [1], the “EC50 (nM) GLP-2R” value turned out to be 2.8 nM, the “Efficacy GLP-2R” value was found to be 101 and the “logEC50 GLP-2R” value worked out at 8.6. In assay [2], the “Efficacy GIPR” value was 80 and the “pEC50 GIPR” value is 9.2. In addition, in assay [3], the “EC50 (nM) GLP-1R” value came to 1.78 nM, the “Efficacy GLP-1R” value stood at 94 and the “logEC50 GLP-1R” value is 8.8.

B4: Compound 16 (peptide)
peptide: Y[Aib]DGTFISDYSTILDNLAARDFINWLIQTKITK(Decanoyl)-NH2
modifications: N-terminus assumed
SMILES: CCCCCCCCCC(=O)NCCCC[C@H](NC(=O)[C@@H](NC(=O)[C@@H](NC(=O)[C@H](CCCCN)NC(=O)[C@@H](NC(=O)[C@H](CCC(N)=O)NC(=O)[C@@H](NC(=O)[C@H](CC(C)C)NC(=O)[C@H](Cc1c[nH]c2ccccc12)NC(=O)[C@H](CC(N)=O)NC(=O)[C@@H](NC(=O)[C@H](Cc1ccccc1)NC(=O)[C@H](CC(=O)O)NC(=O)[C@H](CCCNC(=N)N)NC(=O)[C@H](C)NC(=O)[C@H](C)NC(=O)[C@H](CC(C)C)NC(=O)[C@H](CC(N)=O)NC(=O)[C@H](CC(=O)O)NC(=O)[C@H](CC(C)C)NC(=O)[C@@H](NC(=O)[C@@H](NC(=O)[C@H](CO)NC(=O)[C@H](Cc1ccc(O)cc1)NC(=O)[C@H](CC(=O)O)NC(=O)[C@H](CO)NC(=O)[C@@H](NC(=O)[C@H](Cc1ccccc1)NC(=O)[C@@H](NC(=O)CNC(=O)[C@H](CC(=O)O)NC(=O)C(C)(C)NC(=O)[C@@H](N)Cc1ccc(O)cc1)[C@@H](C)O)[C@@H](C)CC)[C@@H](C)O)[C@@H](C)CC)[C@@H](C)CC)[C@@H](C)CC)[C@@H](C)O)[C@@H](C)CC)[C@@H](C)O)C(N)=O
As for B4, in assay [1], the “EC50 (nM) GLP-2R” value turned out to be 8.9 nM, the “Efficacy GLP-2R” value was 93 and the “logEC50 GLP-2R” value is 8.1. Moreover, in assay [2], the “EC50 (nM) GIPR” value is 1 nM, the “Efficacy GIPR” value was found to be 99 and the “pEC50 GIPR” value was determined as 9. Moreover, in assay [3], the “EC50 (nM) GLP-1R” value amounted to 56.2 nM, the “Efficacy GLP-1R” value was determined as 59 and the “logEC50 GLP-1R” value came to 7.3.

For H[Aib]DGTFISDYSIILDNLAARDFINWLIQTKITK(Decanoyl)-NH2 [Compound 10], in assay [1], the “Efficacy GLP-2R” value was 103 and the “logEC50 GLP-2R” value was 8. In assay [2], the “EC50 (nM) GIPR” value stood at 0.501 nM, the “Efficacy GIPR” value turned out to be 127 and the “pEC50 GIPR” value is 9.3. Moreover, in assay [3], the “EC50 (nM) GLP-1R” value is 3.98 nM, the “Efficacy GLP-1R” value was determined as 99 and the “logEC50 GLP-1R” value worked out at 8.4.

In the case of H[Aib]EGTFISDYSTILDNLAARDFINWLIQTKITK(Decanoyl)-NH2 [Compound 11], in assay [1], the “EC50 (nM) GLP-2R” value stood at 25.1 nM, the “Efficacy GLP-2R” value was determined as 68 and the “logEC50 GLP-2R” value is 7.6. In assay [2], the “EC50 (nM) GIPR” value was 13.6 nM, the “Efficacy GIPR” value amounted to 89 and the “pEC50 GIPR” value was 7.9. For the same molecule, in assay [3], the “EC50 (nM) GLP-1R” value is 39.8 nM, the “Efficacy GLP-1R” value was determined as 76 and the “logEC50 GLP-1R” value was 7.4.

Consider HXDGTFISDYSTILDNLAARDFIEWLIQTKITK (Aib at position 2; K33 acylated with C10, K(C10); C-terminal amide (-NH2)) [Compound 9], for which, in assay [1], the “Efficacy GLP-2R” value turned out to be 108 and the “logEC50 GLP-2R” value amounted to 8. For the same molecule, in assay [2], the “EC50 (nM) GIPR” value came out at 0.708 nM, the “Efficacy GIPR” value was 104 and the “pEC50 GIPR” value turned out to be 9.2. Besides, in assay [3], the “EC50 (nM) GLP-1R” value was determined as 5.62 nM, the “Efficacy GLP-1R” value worked out at 105 and the “logEC50 GLP-1R” value came to 8.3.

B5: Compound 12 (peptide)
peptide: HXDGTFISDYSTXLDNLAARDFINWLIQTKITK
modifications: Aib at positions 2 and 13; K33 acylated with C10, K(C10); C-terminal amide (-NH2)
As to B5, the “Efficacy GLP-2R” value in assay [1] was found to be 77. Besides, the “Efficacy GIPR” value in assay [2] is 107. In addition, the “Efficacy GLP-1R” value in assay [3] is 76.

B6: Compound 17 (peptide)
peptide: HXDGTFISDYSTILDNLAARDFINWLIQTKITK
modifications: Aib at position 2; K33 acylated with C10 via γGlu linker, K(γGlu-C10); C-terminal amide (-NH2)
For the molecule B6, in assay [1], the “Efficacy GLP-2R” value worked out at 92. Moreover, the “Efficacy GIPR” value in assay [2] was 97. In assay [3], the “Efficacy GLP-1R” value turned out to be 107.
